Results as given in US20160108107A1 (INSTITUT NATIONAL DE LA RECHERCHE AGRONOMIQUE INRA, published 2016).

Key:
Assay in all cases: indirect ELISA, protein coated, culture supernatant at 1/50
[1] = target: T1, native low-molecular-weight glutenin
T1 construct: also called LMW
Description: (§1) 100 μl of proteins at 1 μg/ml in 50 mM carbonate buffer, pH 9.6, are incubated overnight at 4° C. at the bottom of a 96-well, bottom, plate (Nunc, Maxisorb). After 3 washes with PBS-0.05% Tween 20, an incubation with PBS-2% (w/v) milk is carried out. The PEE 14C7 monoclonal antibody (100 μl of various dilutions of antibody in PBS-0.1% (w/v) milk) is incubated for 1 h at ambient temperature. After washes with PBS-0.05% Tween 20, 100 μl of the peroxidase-coupled goat anti-mouse IgG secondary antibody (ref: 170-6516, Bio-Rad) diluted to 1/3000 is incubated for 1 h at ambient temperature under the same conditions as the primary antibody. After 3 washes, the OPD (0-phenylenediamine, ref: P-1526, Sigma) substrate is incubated for 30 min in the dark. The reaction is stopped by adding 50 μl of H2SO₄ 4N. The optical densities are read at dual wavelength (490 nm for measuring the hydrolysis of the substrate and 630 nm for eliminating the background noise) on a plate spectrometer (Bioteck, E1x808-1).
(§2) The percentages of reactivity of the antibody with respect to each protein are determined as described in Tranquet et al. (2012). In the present case, the percentages are determined at the 1/50 dilution of the culture supernatant (i.e. the strongest dilution which makes it possible to obtain the strongest absorbence on the best-recognized protein—deamidated gamma-gliadins). The percentage recognition of a protein X is obtained by calculating the Protein X absorbence/deamidated gamma-gliadin absorbence ratio.

deamidated α-gliadin = target: T2, deamidated α-gliadin
T2 construct: also called α-D; deam. α
Description: as §1, §2

deamidated ω-2 gliadin = target: T3, deamidated ω-2 gliadin
T3 construct: also called ω2-D; deam. ω2
Description: as §1, §2

[2] = target: T4, native high-molecular-weight glutenin
T4 construct: also called HMW
Description: as §1, §2

native β-gliadin = target: T5, native β-gliadin
T5 construct: also called non-deamidated β-gliadin
Description: as §1, §2

[3] = target: non-deamidated native ω-5 gliadin
Description: as §1, §2

[4] = target: T6, deamidated low-molecular weight glutenin
T6 construct: also called Glut; LMW-D; deam; LMW
Description: as §1, §2

native ω-2 gliadin = target: T7, native ω-2 gliadin
T7 construct: also called non-deamidated ω-2 gliadin
Description: as §1, §2

native α-gliadin = target: T8, native α-gliadin
T8 construct: also called non-deamidated α-gliadin
Description: as §1, §2

deamidated ω-5 gliadin = target: T9, deamidated ω-5 gliadin
T9 construct: also called ω5-D; deam. ω5
Description: as §1, §2

native γ-gliadin = target: T10, native γ-gliadin
T10 construct: also called non-deamidated γ-gliadin
Description: as §1, §2

B1: PEE 14C7 monoclonal antibody (antibody, IgG1, V domains shown)
VH: DVQLQESGPDLVKPSQSLSLTCTVTGYSITSGYSWHWIRQFPGNKLEWMGYIHYSGSTNYNPSLKSRISITRDTSKNQFFLQLNSVTTEDTATYYCASGYFDVWGAGTTVTVSS
VL: DVVMTQTPLSLPVSLGDQASISCRSSQSLVHSNGNTYLHWYLQKPGQSPKLLIYKVSNRFSGVPDRFSGSGSGTDFTLKISRVEAEDLGVYFCSQSTLVPWTFGGGTKLEIK
notes: Used in the assays as hybridoma culture supernatant; also called PEE 14C7 antibody; monoclonal antibody produced by the PEE 14C7 hybridoma
[1]
  percentage of reactivity (Protein X absorbence/deamidated gamma-gliadin absorbence): 26%
Deamidated α-gliadin
  percentage of reactivity (Protein X absorbence/deamidated gamma-gliadin absorbence): 76%
Deamidated ω-2 gliadin
  percentage of reactivity (Protein X absorbence/deamidated gamma-gliadin absorbence): 94%
[2]
  percentage of reactivity (Protein X absorbence/deamidated gamma-gliadin absorbence): 2%
Native β-gliadin
  percentage of reactivity (Protein X absorbence/deamidated gamma-gliadin absorbence): 4%
[3]
  percentage of reactivity (Protein X absorbence/deamidated gamma-gliadin absorbence): 7%
[4]
  percentage of reactivity (Protein X absorbence/deamidated gamma-gliadin absorbence): 97%
Native ω-2 gliadin
  percentage of reactivity (Protein X absorbence/deamidated gamma-gliadin absorbence): 39%
Native α-gliadin
  percentage of reactivity (Protein X absorbence/deamidated gamma-gliadin absorbence): 1%
Deamidated ω-5 gliadin
  percentage of reactivity (Protein X absorbence/deamidated gamma-gliadin absorbence): 99%
Native γ-gliadin
  percentage of reactivity (Protein X absorbence/deamidated gamma-gliadin absorbence): 1%
